Measured values: the Immune Epitope Database (IEDB)

Key:
Experiment in all cases: IEDB peptide-MHC binding, purified MHC/competitive/radioactivity; filed as Kd, often an IC50 or EC50 that approximates it; ≥ and ≤ were set here for values at or beyond the usual limits of such assays
[1] = biological target: HLA-A*02:02
[2] = biological target: HLA-A*02:03
[3] = biological target: HLA-A*02:06
[4] = biological target: HLA-A*68:01; conditions: source organism: Vaccinia virus WR
[5] = biological target: HLA-A*03:01; conditions: source organism: Vaccinia virus WR
[6] = biological target: HLA-A*33:01; conditions: source organism: Vaccinia virus WR
[7] = biological target: HLA-A*11:01; conditions: source organism: Vaccinia virus WR
[8] = biological target: HLA-A*31:01; conditions: source organism: Vaccinia virus WR
[9] = source organism: Vaccinia virus WR
[10] = source organism: SARS coronavirus Tor2
[11] = source organism: Lymphocytic choriomeningitis virus (strain Armstrong)
[12] = source organism: Mammarenavirus whitewaterense
[13] = source organism: Vaccinia virus Copenhagen
[14] = source organism: Mammarenavirus tacaribeense
[15] = source organism: Dengue virus 4 Philippines/H241/1956

Sequence	Kd [1, 9]	Kd [2, 9]	Kd [3, 9]	other results
SVDIETAIRA	2830 nM	7620 nM	1030 nM	
MLIIFWFSL				Kd [1, 10]: 132 nM; Kd [2, 10]: 13000 nM; Kd [3, 10]: 490 nM
PLHIVCSKTV	≥ 34500 nM	5270 nM	≥ 27000 nM	
SLSNLDFRL	1310 nM	1760 nM	1380 nM	
FSLGAAVKA				Kd [1, 11]: 6460 nM; Kd [2, 11]: 13300 nM; Kd [3, 11]: 327 nM
FMECNLNELV				Kd ([2]; source organism: Homo sapiens): 70.2 nM
KMFESTYRGA				Kd ([2]; source organism: Dengue virus 4 Dominica/814669/1981): 10.4 nM
NILGGVLHT	≥ 77800 nM	≥ 20600 nM	9960 nM	
GLYIPGTSV	111 nM	16.6 nM	1740 nM	
ALWDSNFFT	1060 nM	≥ 28200 nM	≥ 23100 nM	
NITHTNITTL	10400 nM	5020 nM	8170 nM	
QQNNSFIIST	7000 nM	5040 nM	5710 nM	
DIIDLLLPST	14500 nM	6590 nM	284 nM	
EIDVSEVKT	≥ 46000 nM	≥ 78100 nM	≥ 77100 nM	
EMQLKIDKLT	9660 nM	6820 nM	≥ 69800 nM	
YVVIVENDNV	2330 nM	11000 nM	59.7 nM	
FTILEYLYIM	355 nM	3200 nM	40.5 nM	
LAYYNSCMLT	12.1 nM	15.9 nM	86.2 nM	
ELEKCTSEI	≥ 21100 nM	≥ 56000 nM	≥ 57900 nM	
ETIQKDINI	≥ 36600 nM	≥ 50800 nM	≥ 34900 nM	
NVQSLIKFI	12900 nM	6020 nM	10500 nM	
KIDILQMREI	1280 nM	414 nM	875 nM	
RLRYNLCKYL	261 nM	0.304 nM	15700 nM	
NTISGNIYSA	269 nM	314 nM	393 nM	
DIKYISRDEL	2550 nM	9570 nM	2060 nM	
VIPFDDIVRT	≥ 62700 nM	≥ 50300 nM	18200 nM	
KVTVPTNDHI	4710 nM	1240 nM	3600 nM	

Sequence	Kd [1, 9]	Kd [2, 9]	Kd [3, 9]	other results
LNASYITPYV				Kd [1, 12]: 33.2 nM; Kd [2, 12]: 1070 nM; Kd [3, 12]: 37.7 nM
YTFAISYCRA	325 nM	37.6 nM	37.4 nM	
LTNAISSRV	146 nM	18.6 nM	145 nM	
KINNNRIVAM	9120 nM	1300 nM	3190 nM	
ALTDVEKRIL	96.9 nM	127 nM	934 nM	
VQYENLKYTV				Kd ([3]; source organism: Dengue virus 3 Martinique/1243/1999): 61 nM
FLYIIKLVFL				Kd [1, 10]: 7.28 nM; Kd [2, 10]: 22.4 nM; Kd [3, 10]: 865 nM
QIMECSRML	620 nM	1380 nM	948 nM	
LIAGIILLIL				Kd [1, 13]: 141 nM; Kd [2, 13]: 680 nM; Kd [3, 13]: 345 nM
MNNVVQALT				Kd [1, 14]: 2280 nM; Kd [2, 14]: ≥ 21500 nM; Kd [3, 14]: ≥ 77000 nM
IMRNFLRSIA	59.9 nM	122 nM	544 nM	
VMDTLNGIMM	7.64 nM	5160 nM	403 nM	
NVSRVVECLT	4660 nM	14300 nM	≥ 10000 nM	
ALKNSQAEL	70.9 nM	16.8 nM	≥ 32900 nM	
FLCLFLLPSL				Kd [1, 10]: 0.531 nM; Kd [2, 10]: 2.86 nM; Kd [3, 10]: 0.373 nM
ELVMDKNHAI	14200 nM	≥ 70400 nM	≥ 69800 nM	
NQAAVLMGL				Kd [3, 15]: 6.98 nM
ILNAHEDGV				Kd [2, 15]: 93.2 nM
TIAHINTLI	21.4 nM	20 nM	571 nM	
SLGLILLKMV				Kd [2, 15]: 58.2 nM
TLLCVLAALV				Kd [1, 10]: 4.61 nM; Kd [2, 10]: 77.4 nM; Kd [3, 10]: 64.6 nM
TINVNSLAL	1980 nM	1540 nM	2180 nM	
FLNRFTTTL				Kd [1, 10]: 0.659 nM; Kd [2, 10]: 1.02 nM; Kd [3, 10]: 58.1 nM
NVDVGCLLT	9850 nM	14000 nM	≥ 64500 nM	
NILGGVLHTK				Kd [4]: 19.9 nM; Kd [5]: 39 nM; Kd [6]: 1370 nM; Kd [7]: 36.8 nM; Kd [8]: 1820 nM
NVIGLIVIL	84.9 nM	2400 nM	15.1 nM	
STQSVLCVK				Kd [4]: 3.14 nM; Kd [5]: 149 nM; Kd [6]: 15600 nM; Kd [7]: 0.756 nM; Kd [8]: 115 nM
